# What was measured:
# [1] = biological target: monoclonal antibody 1129; assay: competitive ELISA; soluble 248/404 F inhibits 1129 binding to plate-adsorbed A2 F
# [2] = biological target: monoclonal antibody 1129; assay: competitive ELISA; soluble 248/404 F inhibits 1129 binding to plate-adsorbed 248/404 F
# [3] = biological target: monoclonal antibody 1129; assay: competitive ELISA; soluble A2 F inhibits 1129 binding to plate-adsorbed A2 F
# [4] = biological target: monoclonal antibody 1129; assay: competitive ELISA; soluble A2 F inhibits 1129 binding to plate-adsorbed 248/404 F
Substance,Percent Inhibition [1] [%],Percent Inhibition [2] [%],Percent Inhibition [3] [%],Percent Inhibition [4] [%]
"purified RSV fusion (F) protein from the cold-passaged, temperature-sensitive mutant A2 strain cpts-248/404 (PFP-3) (from UniProt P03420 26-574)",94.7,95.9,–,–
purified RSV fusion (F) protein from the parent A2 strain (PFP-2) (from UniProt P03420 26-574),–,–,> 99,> 99
